Residue numbers refer to the chain shown, from its start.

Assay [1] concerns the target T1, type I interferon cell surface receptor complex (IFNAR1/2 complex) expressed on Daudi Burkitt's lymphoma cells (human, UniProt P17181 28-557; P48551 27-515).
T1 construct: whole, on cells; Both chains together comprise the receptor for interferon-beta on the cells of the FACS assay; also called IFNAR1/2 cell surface receptor; cognate receptor on Daudi cells
T1 sequence (looked up) 1: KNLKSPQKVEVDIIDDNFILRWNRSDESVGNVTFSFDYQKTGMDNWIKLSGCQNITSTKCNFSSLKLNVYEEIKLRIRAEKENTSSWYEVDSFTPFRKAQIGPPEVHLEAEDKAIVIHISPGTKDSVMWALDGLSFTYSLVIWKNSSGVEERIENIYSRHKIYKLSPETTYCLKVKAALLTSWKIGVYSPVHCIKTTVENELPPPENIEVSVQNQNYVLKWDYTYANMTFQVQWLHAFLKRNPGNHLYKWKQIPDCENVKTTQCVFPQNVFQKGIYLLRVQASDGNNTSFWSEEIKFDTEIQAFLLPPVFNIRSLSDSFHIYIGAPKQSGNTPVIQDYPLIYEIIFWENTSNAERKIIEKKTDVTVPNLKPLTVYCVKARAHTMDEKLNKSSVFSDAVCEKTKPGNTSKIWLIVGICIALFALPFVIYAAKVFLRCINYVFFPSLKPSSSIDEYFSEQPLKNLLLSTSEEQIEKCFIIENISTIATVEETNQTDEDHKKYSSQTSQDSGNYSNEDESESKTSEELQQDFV
T1 sequence (looked up) 2: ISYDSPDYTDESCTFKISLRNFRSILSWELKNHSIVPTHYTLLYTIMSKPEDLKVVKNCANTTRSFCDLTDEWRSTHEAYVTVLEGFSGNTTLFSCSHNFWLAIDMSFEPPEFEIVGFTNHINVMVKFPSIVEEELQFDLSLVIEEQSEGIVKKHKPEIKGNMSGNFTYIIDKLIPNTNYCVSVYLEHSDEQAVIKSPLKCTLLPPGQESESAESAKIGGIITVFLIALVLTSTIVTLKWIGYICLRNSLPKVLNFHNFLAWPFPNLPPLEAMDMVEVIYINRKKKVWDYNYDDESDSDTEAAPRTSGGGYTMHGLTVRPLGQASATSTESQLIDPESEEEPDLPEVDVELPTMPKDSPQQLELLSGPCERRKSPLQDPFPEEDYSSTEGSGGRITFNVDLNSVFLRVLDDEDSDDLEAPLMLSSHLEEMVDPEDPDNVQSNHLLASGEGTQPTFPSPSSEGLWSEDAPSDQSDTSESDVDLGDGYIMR
Kind of assay: FACS receptor binding assay on Daudi cells; wild type is the reference (100 %), its value is not given. The method, then:
A second receptor binding assay was used to measure the affinity with which the interferon-beta mutants bound to Daudi cells expressing both receptor chains, IFNAR1 and IFNAR2, which together comprise the receptor for interferon-beta. This FACS-based assay used a blocking monoclonal antibody directed against the extracellular domain of IFNAR1, EA12 (Biogen, Inc.), to distinguish unoccupied (free) receptor from receptor to which interferon-beta was bound. Daudi cells (20 μl at 2.5×10⁷ cells/ml) were placed in 96-well V-bottom ELISA plates, and incubated for 1 hour at 4° C. with various concentrations of interferon-beta mutant (20 μl in FACS buffer; 5% FBS, 0.1% NaN₃ in PBS). Desirable serial dilutions of interferon-beta mutants ranged from 0.5 μM down to 0.5 pM. To each well was added 100 ng of biotinylated murine anti-IFNAR1 monoclonal antibody EA12 (10 μl), and the plates incubated for an additional 2 minutes at room temperature before being washed twice with FACS buffer (4° C.). […] The samples were then analyzed by flow cytometry on a FACScan (Becton Dickinson). […]

In assay [2] the target is T2, IFNAR2/Fc fusion protein (extracellular domain of the human IFNAR2 receptor chain fused to the hinge, CH2 and … (human, UniProt P48551 27-243)).
T2 construct: extracellular domain; also called IFNAR2-ectodomain/Fc fusion protein; IFNAR/Fc; not shown: human IgG1 heavy chain constant region: hinge, CH2 and CH3 domains
T2 sequence (looked up): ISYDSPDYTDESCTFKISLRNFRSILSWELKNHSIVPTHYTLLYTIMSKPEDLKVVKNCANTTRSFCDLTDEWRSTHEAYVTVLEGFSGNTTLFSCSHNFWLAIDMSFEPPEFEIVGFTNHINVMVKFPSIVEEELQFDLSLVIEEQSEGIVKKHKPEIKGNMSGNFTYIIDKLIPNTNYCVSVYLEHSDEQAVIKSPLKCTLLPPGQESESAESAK
Kind of assay: ELISA on captured IFNAR2-Fc; wild type is the reference (100 %), its EC50 is not given. The method, then: The receptor binding properties of the Interferon-beta mutants described in C were assessed using two different binding assays. One assay measured binding of the interferon-beta mutants to a fusion protein, IFNAR2/Fc, comprising the extracellular domain of the human IFNAR2 receptor chain fused to part of the constant region of a human IgG. IFNAR2-Fc was expressed in chinese hamster ovary (CHO) cells and purified by protein A sepharose affinity chromatography according to the instructions of the manufacturer (Pierce Chem. Co., Rockford, Ill., catalog #20334). The binding of interferon-beta mutants to IFNAR2-Fc was measured in an ELISA format assay. […] Binding of the interferon-beta mutants to IFNAR2-Fc was measured by adding 50 μl/well mutant interferon-beta in conditioned media, serially diluted in Dulbecco's Modified Eagle's Medium (DMEM) supplemented with 10% fetal bovine serum, and incubating for 2 hours at 4° C. […] After washing, interferon-beta bound to the plates was detected by adding 50 μl/well of a cocktail consisting of a 1:1000 dilution of a rabbit polyclonal anti-interferon antibody (#447, Biogen, Inc.) plus horseradish peroxidase (HRP)-labelled donkey anti-rabbit IgG (Jackson ImmunoResearch), and incubating for 15 minutes at 4° C. […]
(In general: ELISA stands for enzyme-linked immunosorbent assay.)

Assay [3] addresses T2, IFNAR2/Fc fusion protein (extracellular …). Kind of assay: ELISA on captured IFNAR2-Fc. As for the experimental part: FIG. 3. Binding of alanine substituted interferon-beta mutants to a dimeric fusion protein comprised of the extracellular domain of the type I interferon receptor chain, IFNAR2/Fc. The binding affinities of the alanine substituted IFN mutants (A1-E) for the IFNAR2 receptor chain were determined as described in Example 1 (subsection D). The histogram presents their binding affinities in this assay relative to wild type his-IFN-beta (% w.t.). The % w. t. values were calculated as the (affinity of wild type his-IFN-beta)/(affinity of mutant IFN-beta)×100. The % w. t. (x) for multiple assays (n=3) and an average % w.t. (x) for the experimental set are shown.
(§1) The receptor binding properties of the Interferon-beta mutants described in C were assessed using two different binding assays. One assay measured binding of the interferon-beta mutants to a fusion protein, IFNAR2/Fc, comprising the extracellular domain of the human IFNAR2 receptor chain fused to part of the constant region of a human IgG. IFNAR2-Fc was expressed in chinese hamster ovary (CHO) cells and purified by protein A sepharose affinity chromatography according to the instructions of the manufacturer (Pierce Chem. Co., Rockford, Ill., catalog #20334). The binding of interferon-beta mutants to IFNAR2-Fc was measured in an ELISA format assay. ELISA plates were prepared by coating flat-bottomed 96 well plates overnight at 4° C. with 50 μl/well of mouse anti-human IgG1 monoclonal antibody (CDG5-AA9, Biogen, Inc.) at 10 μg/ml in coating buffer (50 mM NaHCO₃, 0.2 mM MgCl₂, 0.2 mM CaCl₂, pH 9.6). Plates were washed twice with PBS containing 0.05% Tween-20, and blocked with 0.5% non-fat dry milk in PBS for 1 hour at room temperature. After two more washes, 50 μl of 1 μg/ml IFNAR2-Fc in 0.5% milk in PBS containing 0.05% Tween-20 was added to each well and incubated for 1 hour at room temperature, and the plates were then washed twice more.

Assay [4] has the same target. Kind of assay: ELISA, IFNAR2-Fc captured on anti-human IgG1 antibody, mutant in conditioned medium. As for the experimental part:
as §1, with “more. Binding of the interferon-beta mutants to IFNAR2-Fc was measured by adding 50 μl/well mutant interferon-beta in conditioned media, serially diluted in Dulbecco's Modified Eagle's Medium (DMEM) supplemented with 10% fetal bovine serum, and incubating for 2 hours at 4° C. Dilutions of interferon-beta mutant typically ranged from approximately 1 μM down to 10 pM. After washing, interferon-beta bound to the plates was detected by adding 50 μl/well of a cocktail consisting of a 1:1000 dilution of a rabbit polyclonal anti-interferon antibody (#447, Biogen, Inc.) plus horseradish peroxidase (HRP)-labelled donkey anti-rabbit IgG (Jackson ImmunoResearch), and incubating for 15 minutes at 4° C. After two washes, HRP substrate was added, and the plate was incubated at 4° C. before being read on an ELISA plate reader at an absorbance of 450 nm. Data were plotted as absorbance versus the concentration of mutant interferon-beta, and the affinity for the binding of the mutant interferon-beta to IFNAR2-Fc was determined by fitting the data to a simple hyperbolic binding equation.” for “more.”

B1: histidine tagged wild-type interferon-beta-1a (ligand)
chain: SGGHHHHHHSSGDDDDKMSYNLLGFLQRSSNFQCQKLLWQLNGRLEYCLKDRMNFDIPEEIKQLQQFQKEDAALTIYEMLQNIFAIFRQDSSSTGWNETIVENLLANVYHQINHLKTVLEEKLEKEDFTRGKLMSSLHLKRYYGRILHYLKAKEYSHCAWTIVRVEILRNFYFINRLTGYLRN
modifications: glycosylated at Asn 80 of the interferon-beta moiety (expressed in human EBNA 293 cells)
notes: Tested as conditioned medium of transfected EBNA 293 cells; also called his IFN-beta; His6-tagged
For B1, the binding result in assay [1] and in assay [2] was “binds” in each case.

B2: his tagged interferon-beta alanine substitution mutant E (ligand)
chain: B1 chain with V165A, R169A, Y172A, N175A
modifications: glycosylated at Asn 80 of the interferon-beta moiety
notes: also called E helix
Take B2: the “concentration tested relative to the w.t. his-IFN-beta EC50” value in assay [3] was found to be 500 fold. Besides, the binding result in assay [4] is “no binding”.

B3: his tagged interferon-beta alanine substitution mutant AB1 (ligand)
chain: B1 chain with L45A, E46A, Y47A, L49A, K50A
modifications: glycosylated at Asn 80 of the interferon-beta moiety
Take B3: the “concentration tested relative to the w.t. his-IFN-beta EC50” value in assay [3] is 500 fold. In addition, the binding result in assay [4] is “no binding”.

B4: his tagged interferon-beta alanine substitution mutant A2 (ligand)
chain: B1 chain with F32A, Q33A, Q35A, K36A, W39A, Q40A
modifications: glycosylated at Asn 80 of the interferon-beta moiety
notes: also called A2 helix
For the molecule B4, in assay [3], the “concentration tested relative to the w.t. his-IFN-beta EC50” value stood at 500 fold. The binding result in assay [4] is given as “no binding”.

B5: his tagged interferon-beta alanine substitution mutant AB2 (ligand)
chain: B1 chain with M53A, N54A, D56A, E59A
modifications: glycosylated at Asn 80 of the interferon-beta moiety
On to B5, for which the “concentration tested relative to the w.t. his-IFN-beta EC50” value in assay [3] is 500 fold. Moreover, in assay [4], the binding result was “no binding”.

(Values after patent publication US20020155547A1 (Biogen, published 2002).)
